Patent CN109734803A (ZONHON BIOPHARMA INST INC, dated 2019)
One block for each binder: values may come before it.

How the values were obtained:
重组人MYO(大肠杆菌重组表达，本公司制备) [1] = target: T1, 重组人MYO(大肠杆菌重组表达，本公司制备) (human, UniProt P02144 2-154); test: Western blot, recombinant MYO on nitrocellulose, HRP-labelled M26 at 1:1000
T1 construct: The background describes myoglobin as one chain of 153 residues with a haem group; also called 重组MYO; 人肌红蛋白
T1 sequence (looked up): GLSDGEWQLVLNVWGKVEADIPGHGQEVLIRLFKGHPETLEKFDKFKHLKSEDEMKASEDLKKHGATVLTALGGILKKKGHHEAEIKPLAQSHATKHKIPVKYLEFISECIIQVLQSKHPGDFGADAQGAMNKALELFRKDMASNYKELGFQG

重组人MYO(大肠杆菌重组表达，本公司制备) [2] = target: T1, 重组人MYO(大肠杆菌重组表达，本公司制备); test: Western blot, recombinant MYO on nitrocellulose, HRP-labelled M08 at 1:1000
重组人MYO(大肠杆菌重组表达，本公司制备) [3] = target: T1, 重组人MYO(大肠杆菌重组表达，本公司制备); test: indirect ELISA, recombinant human MYO coated at 1 μg/mL, hybridoma supernatant, HRP goat anti-mouse IgG

binding result (重组人MYO(大肠杆菌重组表达，本公司制备) [3]): binds
B3: 杂交瘤细胞株M26的抗人MYO抗体 (antibody, V domains shown)
VH: QVQLQQSGDDLVKPGASVKLSCKASGYTFTSYWINWIKQRPGQGLEWIGRIAPEGDSTYYNEMFKGKATLTVDTSSSTAYIQLSSLSSEDSAVYFCAREVRNAMDYWGQGTSVTVSS
VL: DIQMNQSPSSLSASLGDTITITCHASQNIHVWLSWYLQKPGNITKLLIYEASNLHTGVPSRFSGSGSGTGFTLTISSLQPEDIATYYCQQGQRYPLTFGGGTKLEIK
notes: Mouse hybridoma culture supernatant, detected with HRP goat anti-mouse IgG; also called 抗人肌红蛋白抗体(M26)

binding result (重组人MYO(大肠杆菌重组表达，本公司制备) [3]): binds
B4: 杂交瘤细胞株M08的抗人MYO抗体 (antibody, V domains shown)
VH: QVQLQQSGAELAKPGASVKMSCKASGYTFTSYWMHWVKQRPGQGLEWIGYIKPNTDYTEYNQKFKDKATLTADKSSSTAYMQLSSLTSEDSAVYYCTRIRGYALDYWGQGTSVTVSS
VL: DIVMTQSPSSLTVTAGEKVTMICKSSQSLLNSGNQKNYLTWYQQKPGQPPKLLIYWASTRESGVPDRFTGSGSGTDFTLTISSVQAEDLAVYYCQNDYNFPLTFGAGTKLELK
notes: Mouse hybridoma culture supernatant, detected with HRP goat anti-mouse IgG; also called 抗人肌红蛋白抗体(M08)

The next lines start with the binder.

B1: 单链抗体M26 (scFv)
scFv: QVQLQQSGDDLVKPGASVKLSCKASGYTFTSYWINWIKQRPGQGLEWIGRIAPEGDSTYYNEMFKGKATLTVDTSSSTAYIQLSSLSSEDSAVYFCAREVRNAMDYWGQGTSVTVSSGGGGSGGGGSGGGGSDIQMNQSPSSLSASLGDTITITCHASQNIHVWLSWYLQKPGNITKLLIYEASNLHTGVPSRFSGSGSGTGFTLTISSLQPEDIATYYCQQGQRYPLTFGGGTKLEIK
notes: VH and VL of M26 joined by a (GGGGS)3 linker, expressed in E. coli and purified on HisTrap; HRP-labelled in the Western blot; coated on the T line of the nitrocellulose membrane in the test card; also called M26-scFv; M26-HRP; not shown: Histidine tag introduced downstream of the gene
binding result (重组人MYO(大肠杆菌重组表达，本公司制备) [1]): binds

B2: 单链抗体M08 (scFv)
scFv: QVQLQQSGAELAKPGASVKMSCKASGYTFTSYWMHWVKQRPGQGLEWIGYIKPNTDYTEYNQKFKDKATLTADKSSSTAYMQLSSLTSEDSAVYYCTRIRGYALDYWGQGTSVTVSSGGGGSGGGGSGGGGSDIVMTQSPSSLTVTAGEKVTMICKSSQSLLNSGNQKNYLTWYQQKPGQPPKLLIYWASTRESGVPDRFTGSGSGTDFTLTISSVQAEDLAVYYCQNDYNFPLTFGAGTKLELK
notes: VH and VL of M08 joined by a (GGGGS)3 linker, expressed in E. coli and purified on HisTrap; HRP-labelled in the Western blot; coupled to time-resolved fluorescent microspheres in the test card; also called M08-scFv; M08-HRP; not shown: Histidine tag introduced downstream of the gene
binding result (重组人MYO(大肠杆菌重组表达，本公司制备) [2]): binds
